# Results reported in US20100129294.
# T1: insulin fibrils formed from purified bovine insulin, P01317
# T1 chain: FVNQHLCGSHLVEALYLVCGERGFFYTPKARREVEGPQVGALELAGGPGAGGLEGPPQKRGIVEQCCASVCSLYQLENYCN
# B1: nattokinase (protein)
# chain: AQSVPYGISQIKAPALHSQGYTGSNVKVAVIDSGIDSSHPDLNVRGGASFVPSETNPYQDGSSHGTHVAGTIAALNNSIGVLGVAPSASLYAVKVLDSTGSGQYSWIINGIEWAISNNMDVINMSLGGPTGSTALKTVVDKAVSSGIVVAAAAGNEGSSGSTSTVGYPAKYPSTIAVGAVNSSNQRASFSSVGSELDVMAPGVSIQSTLPGGTYGAYNGTSMATPHVAGAAALILSKHPTWTNAQVRDRLESTATYLGNSFYYGKGLINVQAAAQ
# Assays:
# [1] = target: Aβ40 fibrils formed from a synthetic Aβ40 peptide
# [2] = target: β2-microglobulin (β2-M) fibrils, P61769
# [3] = target: transthyretin (TTR) fibrils, P02766
# [4] = target: T1, insulin fibrils formed from purified …
# Sequence of β2-microglobulin (β2-M) fibrils, P61769 (P61769 21-119): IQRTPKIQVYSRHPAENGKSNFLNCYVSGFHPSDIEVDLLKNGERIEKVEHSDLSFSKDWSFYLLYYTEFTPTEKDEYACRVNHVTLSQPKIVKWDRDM
protein,measurement,setting,value
B1,"loss of negative ellipticity at 218 nm in CD spectra after 1 hr of digestion (40 C, pH 7)",[1],nattokinase degraded all three fibrils
same,"degradation of β2-M fibrils at pH 7.4 and 37 C, by ThT fluorescence emission at 487 nm",[2],"As for β2-M fibrils, it was degraded near completion in two hours"
same,"degradation of TTR fibrils at pH 7.4 and 37 C, by ThT fluorescence emission at 487 nm",[3],TTR fibrils were almost completely degraded by nattokinase in one hour
same,"degradation of insulin fibrils at pH 5, 40 C, by CD spectroscopy",[4],"At pH 5, nattokinase did not show any activity"
same,"degradation of insulin fibrils at pH 5-10, 40 C, by CD spectroscopy",[4],the nattokinase activity increased gradually with increasing pH and reached a maximal activity at pH 10 in the range tested
same,"loss of negative ellipticity at 218 nm in CD spectra after 1 hr of digestion (40 C, pH 7)",[4],nattokinase degraded all three fibrils
